Assay results: patent US20150210761A1 (SAMSUNG ELECTRONICS, published 2015)

T1: hAng1 (human, UniProt Q15389 20-498, limits assumed)
T1 construct: Tested by the same SPR set-up as hAng2; the construct is not described; also called human Ang1
T1 sequence (looked up): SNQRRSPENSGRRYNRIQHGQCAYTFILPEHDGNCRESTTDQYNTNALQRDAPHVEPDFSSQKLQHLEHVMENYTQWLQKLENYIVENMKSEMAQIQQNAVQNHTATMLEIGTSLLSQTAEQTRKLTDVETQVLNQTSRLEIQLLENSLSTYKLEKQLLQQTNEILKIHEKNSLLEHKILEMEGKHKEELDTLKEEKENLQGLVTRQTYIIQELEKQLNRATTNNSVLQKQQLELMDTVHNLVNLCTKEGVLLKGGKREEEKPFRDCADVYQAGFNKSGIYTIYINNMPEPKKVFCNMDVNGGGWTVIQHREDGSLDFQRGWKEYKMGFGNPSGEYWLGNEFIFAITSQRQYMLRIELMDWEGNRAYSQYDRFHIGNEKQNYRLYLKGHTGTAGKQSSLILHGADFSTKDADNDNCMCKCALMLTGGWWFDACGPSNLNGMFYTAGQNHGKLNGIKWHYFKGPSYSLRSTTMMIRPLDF

T2: human Ang2 protein (R&D systems) (human, UniProt O15123 19-496)
T2 sequence: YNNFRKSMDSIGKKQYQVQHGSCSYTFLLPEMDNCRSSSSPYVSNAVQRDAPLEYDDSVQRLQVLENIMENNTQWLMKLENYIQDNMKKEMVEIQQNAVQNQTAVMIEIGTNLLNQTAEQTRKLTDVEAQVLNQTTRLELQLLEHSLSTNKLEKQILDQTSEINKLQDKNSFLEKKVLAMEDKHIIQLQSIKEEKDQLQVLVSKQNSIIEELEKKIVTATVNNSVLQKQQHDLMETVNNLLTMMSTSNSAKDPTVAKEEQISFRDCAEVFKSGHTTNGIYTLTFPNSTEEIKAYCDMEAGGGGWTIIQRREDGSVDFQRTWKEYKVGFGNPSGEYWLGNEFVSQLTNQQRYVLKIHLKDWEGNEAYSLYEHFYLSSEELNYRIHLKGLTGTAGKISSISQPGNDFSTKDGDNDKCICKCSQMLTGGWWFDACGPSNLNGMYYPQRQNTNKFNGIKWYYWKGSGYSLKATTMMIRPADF

T3: recombinant hAng-2 (C-His, R&D Systems) (human, UniProt O15123 19-496)
T3 construct: Bought protein; Captured on an anti-His antibody chip for SPR; also called human Ang2; not shown: C-terminal His tag
T3 sequence: T2 sequence

T4: FLAG-tagged hAng-2 (human, UniProt O15123 19-496)
T4 sequence: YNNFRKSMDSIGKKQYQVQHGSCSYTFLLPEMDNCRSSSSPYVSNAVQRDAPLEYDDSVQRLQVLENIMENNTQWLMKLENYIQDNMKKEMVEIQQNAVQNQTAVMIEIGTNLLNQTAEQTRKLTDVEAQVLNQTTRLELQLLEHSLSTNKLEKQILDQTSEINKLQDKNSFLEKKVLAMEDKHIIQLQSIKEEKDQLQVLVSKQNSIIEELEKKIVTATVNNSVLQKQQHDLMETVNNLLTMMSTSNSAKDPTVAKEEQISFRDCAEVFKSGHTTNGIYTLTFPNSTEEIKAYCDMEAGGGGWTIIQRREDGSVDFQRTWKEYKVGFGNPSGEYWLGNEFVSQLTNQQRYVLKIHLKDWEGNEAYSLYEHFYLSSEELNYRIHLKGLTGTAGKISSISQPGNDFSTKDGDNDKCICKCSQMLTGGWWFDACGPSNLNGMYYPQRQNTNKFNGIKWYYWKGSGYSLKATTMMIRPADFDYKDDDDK

B1: SAIT-ANG2-AB-m8D3 (antibody, V domains shown)
VH: EVQLQQSGPELVKPGDSVKMSCKASGYTFTDYYMKWVRQSHGKSLQWVGEINPKNGDTFYNQIFKGKATLTVDKSSSTAYMQLTSLTSEDSAVYYCTRENDYDVGFFDYWGQGTSVTVSS
VL: TIVMTQTPKFLLVSAGDRITITCKASQSVSNDVAWYQQKPGQSPKLLIYYASNRYPGVPDRFTGSGYGTDFTFTISTVQAEDLAVYFCQQDYTSPWTFGGGTELEIK
notes: also called hybridoma KCLRF-BP-00308
B2: SAIT-ANG2-AB-m1A10 (antibody, V domains shown)
VH: QVQLQQSGAELMKPGASVKISCKATDYTFSSYWLEWLIQRPGHGLEWIGEILPGSGSTNYNEKFRGKATFTEDTSSNTAYMQLSSLTSEDSAVYYCARGNHNSYYYAMDYWGQGTSVTVSS
VL: DIVLTQSPASLAVSLGQRATISCRASESVDSYGNSFMHWYQQKPGQPPKLLIYRASNLDSGIPARFSGSGSRTDFTLTINPVEADDVATYYCQQSNEDPLTFGAGTKLELK
notes: also called hybridoma KCLRF-BP-00306
B3: SAIT-ANG2-AB-m3E2 (antibody, V domains shown)
VH: EVQLQQSGAELVKPGASVKLSCTASGFNIKDPYIHWVKQRPEQGLEWIGRIDPANGNTKYDPKFQGKATITADTSSNTAYLQLSSLTSEDTAVYYCVRRWDGGGFDYWGQGTSVTVSS
VL: DIQMTQTTSSLSASLGDRVTISCRASQDISNYLNWYQQKPDGTVKLLIYYTSRLHSGVPSRFSGSGSGTDYSLTITNLEQEDIATYFCQQGNTLPWTFGGGTKLEIK
notes: also called hybridoma KCLRF-BP-00305

Target: T1, hAng1
Assay: SPR, BIAcore T100

| Binder | binding result |
| --- | --- |
| B1 | no binding (tested: 100 nM (highest antibody concentration)) |
| B2 | no binding (tested: 100 nM (highest antibody concentration)) |
| B3 | no binding (tested: 100 nM (highest antibody concentration)) |

Target: T2, human Ang2 protein (R&D systems)
Assay: cell-based or functional assay

| Tie2 phosphorylation inhibition (%), antibody at 50 nM, Tie2-overexpressing CHO cells with 20 nM human Ang2 [%] | Binder |
| --- | --- |
| 76.7 | B1 |
| 82 | B2 |
| 76.9 | B3 |

Target: T3, recombinant hAng-2 (C-His, R&D Systems)
Assay: SPR, BIAcore T100; hAng-2 C-His captured on anti-His chip, antibody flowed
Experimental: To more exactly measure the binding affinity of the anti-Ang2 antibodies to antigen Ang2, the binding affinity of the above antibodies to the antigen was measured by an surface plasmon resonance (SPR) method using BIAcore T100 (GE Healthcare). The SPR method uses refractive index change of light which passes a sensor chip according to the state of materials coated onto the sensor chip, and if an antigen or an antibody is flowed onto a chip coated with the antigen or antibody, it causes changes in refractive index due to their binding and Kd values are thus calculated from the measured values.
First, anti-His antibody was immobilized on a CM5 sensor chip (GE healthcare) up to 8,000 RU levels using a pH 5.0 acetate solution and an amine coupling kit (GE Healthcare). 6 μg/ml of a recombinant hAng-2 (C-His, R&D Systems) protein was flowed onto the chip to be captured at 100 to 200 RU levels.

| Kd [nM] | Binder |
| --- | --- |
| 4 | B1 |
| 4.2 | B2 |
| 1.3 | B3 |

Target: T4, FLAG-tagged hAng-2
Assay: Ang2:Tie2 competition ELISA; hTie2-Fc coated, 400 ng/ml FLAG-tagged hAng-2, anti-FLAG-HRP detection
Experimental: More specifically, MaxiSorp™ flat-bottom plate (Nunc) of 96-well was coated with hTie2-Fc (R&D Systems) which is a protein bound with 4 μg/ml of Fc of human IgG1. After coating, the plate was washed five times with 0.05% (v/v) Tween-20-containing PBS (phosphate buffer saline) and then blocked with 1% (v/v) BSA (bovine serum albumin; Sigma)-containing PBS at a room temperature for 2 hour.
For Ang2:Tie2 competition ELISA, each anti-Ang2 antibody obtained in Example 2 was placed at various concentrations of 400 nM-0.001 nM into each well coated with the hTie-2/Fc fusion protein along with 1% (v/v) BSA and 400 ng/ml of a FLAG-tagged hAng-2 and then, the plate was allowed to react at a room temperature for 2 hours and washed five times with PBST. After that, a HRP-conjugated anti-FLAG antibody (Sigma) diluted in 1% (v/v) BSA-containing PBS at a ratio of 1:5,000 (v/v) was added in an amount of […] to each well to react at a room temperature for 1 hour and then, the plate was washed five times with PBST. Lastly, 100 μl of TMB substrate (Cell Signaling) was added to each well of the plate to induce color development for 3 min. and then, the reaction was ceased by the addition of 100 μl of Stop solution (Cell Signaling) and OD450 values were measured on a plate reader (Molecular Devices).

| IC50 [nM] | Binder |
| --- | --- |
| 0.99 | B1 |
| 1.34 | B2 |
| 0.55 | B3 |
